For orientation: Kd means the equilibrium constant for the complex coming apart. The low end stands for higher affinity, the high end for lower affinity. The EC50 (read off the curve) is the concentration that produces a half-maximal response. A lower EC50 (read off the curve) goes with higher potency in that assay.

The text below walks through data of patent publication US12428489 (University of Texas, dated 2025).

Experiment [1] has as its target T1, Human PD-L2-Fc (human, UniProt Q9BQ51 20-220).
T1 construct: also called Fc fusion antigen; not shown: Fc part
T1 sequence: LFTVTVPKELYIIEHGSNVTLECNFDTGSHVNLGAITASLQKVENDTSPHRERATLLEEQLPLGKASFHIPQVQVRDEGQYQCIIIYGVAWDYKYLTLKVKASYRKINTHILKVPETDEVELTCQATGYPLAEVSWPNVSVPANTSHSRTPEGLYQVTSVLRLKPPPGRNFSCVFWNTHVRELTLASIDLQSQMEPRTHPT
The experiment is described as follows: ForteBio Octet, IgG KD, Human PD-L2-Fc, avid.

In experiment [2] the target is T2, PD-L2 on CHO-PD-L2 cells (human, UniProt Q9BQ51 20-273).
T2 sequence: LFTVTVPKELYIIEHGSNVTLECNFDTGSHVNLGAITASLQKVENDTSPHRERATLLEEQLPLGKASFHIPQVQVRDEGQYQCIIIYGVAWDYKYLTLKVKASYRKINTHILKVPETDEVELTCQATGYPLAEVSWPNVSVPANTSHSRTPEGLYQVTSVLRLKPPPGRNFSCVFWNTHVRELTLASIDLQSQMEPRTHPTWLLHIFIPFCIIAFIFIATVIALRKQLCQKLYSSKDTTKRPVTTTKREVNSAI
The experiment is described as follows: cell-based or functional assay.

For experiment [3], the target named is T2, PD-L2 on CHO-PD-L2 cells. Nature of the experiment: cell-based or functional assay. This is another data set of the same source.
For experiment [4], the target named is T2, PD-L2 on CHO-PD-L2 cells. The experiment is described as follows: cell-based or functional assay. The source holds these as a separate data set.
For another experiment, the target named is T3, Cyno PD-L2-Fc (cyno, UniProt A0A2K5U5Z4 20-220).
T3 construct: not shown: Fc part
T3 sequence: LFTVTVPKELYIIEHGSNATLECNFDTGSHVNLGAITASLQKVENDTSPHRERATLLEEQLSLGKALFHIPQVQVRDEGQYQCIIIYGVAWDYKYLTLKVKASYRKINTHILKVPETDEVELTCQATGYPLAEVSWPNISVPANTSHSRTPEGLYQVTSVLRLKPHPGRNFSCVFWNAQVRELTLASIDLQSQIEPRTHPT
The experiment is described as follows: ForteBio Octet, IgG KD, Cyno PD-L2-Fc, avid. As to the method:
(§1) ForteBio K_D measurements—ForteBio affinity measurements were performed on an Octet RED384 generally as previously described (see, e.g., Estep et al., High throughput solution-based measurement of antibody-antigen affinity and epitope binning. Mabs 5(2), 270-278 (2013)). Briefly, ForteBio affinity measurements were performed by loading IgGs on-line onto AHQ sensors. Sensors were equilibrated off-line in assay buffer for 30 min and then monitored on-line for 60 seconds for baseline establishment. Sensors with loaded IgGs were exposed to 100 nM antigen for 3 minutes, and afterwards were transferred to assay buffer for 3 min for off-rate measurement. For monovalent affinity assessment Fabs were used instead of IgGs. For this assessment the unbiotinylated Fc fusion antigen was loaded on-line onto the AHQ sensors. Sensors were equilibrated off-line in assay buffer for 30 min and then monitored on-line for 60 seconds for baseline establishment. Sensors with loaded antigen were exposed to 100 nM Fab for 3 minutes, and afterwards they were transferred to assay buffer for 3 min for off-rate measurement. All kinetics were analyzed using the 1:1 binding model.

In another experiment the target is T4, human PD-L2 protein (human, UniProt Q9BQ51 20-220, limits assumed).
T4 construct: also called analyte (PD-L2)
T4 sequence: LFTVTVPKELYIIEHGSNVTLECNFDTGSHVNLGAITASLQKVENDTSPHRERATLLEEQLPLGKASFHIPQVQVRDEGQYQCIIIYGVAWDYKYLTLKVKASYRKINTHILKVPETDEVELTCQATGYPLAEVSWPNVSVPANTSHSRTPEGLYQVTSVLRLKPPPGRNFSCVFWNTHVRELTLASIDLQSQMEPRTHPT
The experiment is described as follows: MFI against Ab nM; legend: binding to human PD-L2 protein, maximum fluorescence intensity, ForteBio Octet. As for the experimental part:
Antibody Screening and Characterization. Antibody candidates generated from the presentation methods described above were tested for the capacity to bind to PD-L2 and block its binding to PD-1. 5 µg/mL of antibody was bound to CHO-PD-L2 cells and then recombinant PD-1 (RnD Systems) labelled with Alexa 532 (ThermoFisher) was added for 1 hour. PD-1 maximum fluorescence intensity was measured. Blockade of PD-1 binding was measured by reduction in Alexa 532 fluorescence by flow cytometry. […] The binding and release of the analyte (PD-L2) are recorded by the Octet instrument in real time and then used to calculate the KD, $Kon$, and $Kdis$; results are derived from 2:1 Global Fit Modeling with reference well subtraction. […]
PD-L2 antibodies avidly bind human PD-L2. […] Antibody subclones were immobilized on Anti-Human Fc Capture (AHC) Biosensors at 100 nM (15 μg/mL), and human PD-L2 protein association and dissociation was tested in dilution series from 30-0.37 nM (FIGS. 4A-B).

Experiment [5] concerns the target T2, PD-L2 on CHO-PD-L2 cells. The experiment is described as follows: cell surface binding, panel 'Binding Assay PD-L2', MFI against Ab nM (flow cytometry on PD-L2 expressing cells).
The target in a further experiment is T5, Human PD-L2-HIS (human, UniProt Q9BQ51 20-220).
T5 construct: also called HIS-tagged protein (human PD-L2); not shown: HIS tag
T5 sequence: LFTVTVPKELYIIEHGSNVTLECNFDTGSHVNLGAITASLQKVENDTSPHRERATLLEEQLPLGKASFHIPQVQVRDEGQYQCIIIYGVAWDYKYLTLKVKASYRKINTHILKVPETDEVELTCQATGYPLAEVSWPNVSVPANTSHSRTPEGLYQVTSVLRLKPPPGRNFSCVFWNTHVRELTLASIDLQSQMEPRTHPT
Nature of the experiment: IgG KD, Human PD-L2-HIS, monovalent (method not named in the table: ForteBio or MSD-SET).

The target of another experiment is T6, Mouse PD-L2-Fc (mouse, UniProt Q9WUL5 20-219).
T6 construct: not shown: Fc part
T6 sequence (looked up): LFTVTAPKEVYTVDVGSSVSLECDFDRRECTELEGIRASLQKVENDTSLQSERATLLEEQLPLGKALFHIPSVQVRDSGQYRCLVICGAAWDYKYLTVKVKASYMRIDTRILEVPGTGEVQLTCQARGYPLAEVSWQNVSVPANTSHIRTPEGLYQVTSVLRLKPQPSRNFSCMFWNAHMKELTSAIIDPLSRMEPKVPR
Nature of the experiment: ForteBio Octet, IgG KD, Mouse PD-L2-Fc, avid.

Experiment [6] deals with T1, Human PD-L2-Fc. The experiment is described as follows: ForteBio Octet, Fab KD, Human PD-L2-Fc on sensor, monovalent. As to the method:
as §1
For orientation: Biolayer interferometry detects binding as a change in optical thickness at a sensor tip.

Experiment [7] has as its target T2, PD-L2 on CHO-PD-L2 cells. The experiment is described as follows: cell-based or functional assay. This is another data set of the same source.
For experiment [8], the target named is T2, PD-L2 on CHO-PD-L2 cells. Nature of the experiment: competition assay by flow cytometry: antibody against Biotin-rhPD-1-Fc on PD-L2 expressing cells, Streptavidin-APC; axis 'Antibodies µg (logX)'. For orientation: Flow cytometry measures light scatter and fluorescence of single cells or particles in a stream.

B1: ADI-20810 (anti-PD-L2 antibody 20810), IgG (antibody, V domains shown)
VH: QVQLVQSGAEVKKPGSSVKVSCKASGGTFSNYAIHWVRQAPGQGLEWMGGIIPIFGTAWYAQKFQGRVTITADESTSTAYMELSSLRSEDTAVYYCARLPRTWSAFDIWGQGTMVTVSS
VL: EIVLTQSPATLSLSPGERATLSCRASQSVSSYLAWYQQKPGQAPRLLIYDASNRATGIPARFSGSGSGTDFTLTISSLEPEDFAVYYCQQVVTLPPTFGGGTKVEIK
notes: Tested as full-length IgG
Take B1: the dissociation constant Kd turned out to be 0.331 nM in the experiment with Human PD-L2-Fc [1], 0.3 nM in the experiment with Cyno PD-L2-Fc, 2.5 pM with Human PD-L2-HIS and 0.503 nM with Mouse PD-L2-Fc. The “IC50 (Promega PD-1:PD-L2 bioassay, luciferase)” value with PD-L2 on CHO-PD-L2 cells [2] amounted to 0.41 nM. The “EC50 (read off the curve)” value was roughly 0.4 nM with PD-L2 on CHO-PD-L2 cells [3], roughly 0.2 nM with PD-L2 on CHO-PD-L2 cells [4], roughly 0.7 nM in the experiment with human PD-L2 protein and roughly 0.7 nM in the experiment with PD-L2 on CHO-PD-L2 cells [5].

B2: ADI-20810 Fab (Fab, V domains shown)
VH: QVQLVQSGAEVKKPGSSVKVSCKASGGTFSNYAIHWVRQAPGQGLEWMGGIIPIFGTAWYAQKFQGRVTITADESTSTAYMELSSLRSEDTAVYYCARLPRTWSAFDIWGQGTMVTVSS
VL: EIVLTQSPATLSLSPGERATLSCRASQSVSSYLAWYQQKPGQAPRLLIYDASNRATGIPARFSGSGSGTDFTLTISSLEPEDFAVYYCQQVVTLPPTFGGGTKVEIK
B2 gave an equilibrium dissociation constant (Kd) with Human PD-L2-Fc [6] of 0.267 nM.

B3: ADI-20811 Fab (Fab, V domains shown)
VH: QVQLVQSGAEVKKPGSSVKVSCKASGGTFSSAAIHWVRQAPGQGLEWMGGIIPIFGLAQYAQKFQGRVTITADESTSTAYMELSSLRSEDTAVYYCARLPRTWSAFDIWGQGTMVTVSS
VL: EIVLTQSPATLSLSPGERATLSCRASQSVSSYLAWYQQKPGQAPRLLIYDASNRATGIPARFSGSGSGTDFTLTISSLEPEDFAVYYCQQVVTLPPTFGGGTKVEIK
Take B3: binding in the experiment with Human PD-L2-Fc [6] was put at a Kd of 0.21 nM.

B4: ADI-20811 (anti-PD-L2 antibody 20811), IgG (antibody, V domains shown)
VH: QVQLVQSGAEVKKPGSSVKVSCKASGGTFSSAAIHWVRQAPGQGLEWMGGIIPIFGLAQYAQKFQGRVTITADESTSTAYMELSSLRSEDTAVYYCARLPRTWSAFDIWGQGTMVTVSS
VL: EIVLTQSPATLSLSPGERATLSCRASQSVSSYLAWYQQKPGQAPRLLIYDASNRATGIPARFSGSGSGTDFTLTISSLEPEDFAVYYCQQVVTLPPTFGGGTKVEIK
notes: Tested as full-length IgG
For the molecule B4, the Kd with Human PD-L2-Fc [1] is 0.248 nM; in the experiment with Cyno PD-L2-Fc it was 0.231 nM; in the experiment with Human PD-L2-HIS it was 8.5 pM; with Mouse PD-L2-Fc, 0.259 nM. For the same molecule, in the experiment with PD-L2 on CHO-PD-L2 cells [2], the “IC50 (Promega PD-1:PD-L2 bioassay, luciferase)” value turned out to be 0.24 nM. In addition, the “EC50 (read off the curve)” value in the experiment with PD-L2 on CHO-PD-L2 cells [4] was roughly 0.2 nM; with human PD-L2 protein, roughly 0.3 nM.

B5: ADI-20816 (anti-PD-L2 antibody 20816), IgG (antibody, V domains shown)
VH: QVQLVQSGAEVKKPGSSVKVSCKASGGTFSSYLIAWVRQAPGQGLEWMGGIIPHFGVANYAQKFQGRVTITADESTSTAYMELSSLRSEDTAVYYCARVPQYHGYFDLWGRGTLVTVSS
VL: DIQMTQSPSSVSASVGDRVTITCRASQGISSWLAWYQQKPGKAPKLLIYAASNLQSGVPSRFSGSGSGTDFTLTISSLQPEDFATYYCQQGNSFPTFGGGTKVEIK
notes: Tested as full-length IgG; Clone family 55-g1
Regarding B5, the equilibrium dissociation constant (Kd) with Human PD-L2-Fc [1] is 0.116 nM; in the experiment with Cyno PD-L2-Fc, 0.296 nM; with Human PD-L2-HIS it was 52 pM; in the experiment with Mouse PD-L2-Fc, 21.6 nM. Moreover, the “EC50 (read off the curve)” value with PD-L2 on CHO-PD-L2 cells [4] is roughly 0.3 nM; in the experiment with human PD-L2 protein, roughly 0.9 nM. In the experiment with PD-L2 on CHO-PD-L2 cells [7], the “IC50 (Promega PD-1:PD-L2 bioassay, luciferase) [Cont'd]” value came to 0.38 nM.

B6: anti-PD-L2 antibody 16510 (antibody, human IgG1, V domains shown)
VH: QVQLVQSGAEVKKPGSSVKVSCKASGGTFSSYAISWVRQAPGQGLEWMGGIIPIFGTANYAQKFQGRVTITADESTSTAYMELSSLRSEDTAVYYCARVQKQYTYFDLWGRGTLVTVSS
VL: DIQLTQSPSSLSASVGDRVTITCQASQDISNFLNWYQQKPGKAPKLLIYDASNLETGVPSRFSGSGSGTDFTFTISSLQPEDIATYYCQQLVGAPPTFGGGTKVEIK
Consider B6, for which, in the experiment with PD-L2 on CHO-PD-L2 cells [8], the “IC50 (read off the curve)” value is roughly 0.006 µg.

B7: ADI-20816 Fab (Fab, V domains shown)
VH: QVQLVQSGAEVKKPGSSVKVSCKASGGTFSSYLIAWVRQAPGQGLEWMGGIIPHFGVANYAQKFQGRVTITADESTSTAYMELSSLRSEDTAVYYCARVPQYHGYFDLWGRGTLVTVSS
VL: DIQMTQSPSSVSASVGDRVTITCRASQGISSWLAWYQQKPGKAPKLLIYAASNLQSGVPSRFSGSGSGTDFTLTISSLQPEDFATYYCQQGNSFPTFGGGTKVEIK
B7 yielded a Kd in the experiment with Human PD-L2-Fc [6] of 0.268 nM. This lies in the sub-nanomolar range.
